Test results reported in patent US20030211075A1 (priority 2001, published 2003).
Changes are numbered by the printed parent chain. Names may count otherwise.

Columns and labels:
human endoglin (human) = human endoglin (human) (UniProt P17813); experiment: in vivo localization, human/SCID animal with human skin graft containing a tumor, overnight
[1] = test system: L540 human Hodgkin's disease tumors; experiment: L540 tumors, immunoglobulin-tTF conjugate with etoposide; conditions: mouse, in vivo
Method: The tumor test systems were: i) L540 human Hodgkin's disease tumors growing in SCID mice; ii) C1300 Muγ (interferon-secreting) neuroblastoma growing in nu/nu mice; iii) H460 human non-small cell lung carcinoma growing in nu/nu mice. To establish solid tumors, 1.5×10^7 tumor cells were injected subcutaneously into the right anterior flank of SCID or BALB/c nu/nu mice (Charles River Labs., Wilmingham, Mass.). When the tumors had grown to various diameters, mice were assigned to different experimental groups, each containing 4 to 9 mice.
Mice bearing L540 human Hodgkin's disease tumors were treated with a complex of tTF219 and a bispecific antibody together with the anti-cancer drug, etoposide, at a conventional dose.

[2] = in vivo; cited from earlier work
[3] = progressive disease before treatment; cited from earlier work
VCAM-1 = experiment: FACS for upregulation of VCAM-1 on endothelial cells; type: cell-based, mouse
Method: (§1) Mouse endothelial cells were seeded in 48 well tissue culture plates and allowed to adhere overnight. Cells were stimulated with TNFα at the following concentrations: 500 U/ml; 100 U/ml; 20 U/ml; 4 U/ml; 0.8 U/ml; 0.16 U/ml; and with medium only.
Endothelial cells were then investigated for upregulation of the adhesion molecule VCAM-1 by fluorescence activated cell stain (FACS). To this end, cells were stained with an antibody against murine VCAM-1, followed by an appropriate FITC-conjugated secondary antibody. Fluorescent cells were detected on a flow cytometer (Becton Dickinson, San Jose, Calif.).

HUVEC cells = experiment: FACS analysis of tissue factor expression on endothelial cells; type: cell-based, human; conditions: TNFα 500 U/ml, LPS 10 μg/ml, VEGF 1 nM, 6 h
Method: To analyze tissue factor expression on the surface of endothelial cells, HUVEC cells were incubated with TNFα (500 U/ml), LPS (10 μg/ml) or vascular endothelial growth factor (VEGF, 1 nM) alone or in combination for 6 h at 37°. Cells were then detached and stained for surface expression of human tissue factor with a sheep-anti-human tissue factor antibody (Haemochrom. Essen. Germany) and an appropriate FITC-conjugated secondary antibody. Fluorescent cells were detected on a flow cytometer (Becton Dickinson, San Jose, Calif.).

Mouse endothelial cells = experiment: Cell based two stage coagulation assay after TNFα
Method: as §1
Endothelial cells were also tested for coagulant activity in a cell based two stage coagulation assay. After incubation with TNFα, cells were washed and incubated with coagulation factor mix (0.5 μg/ml factor VIIa in a mix containing 2.8 μg/ml factor IX, 3.4 μg/ml factor X, 50 μM phospholipids, in calcium buffer). The supernatant of wells was transferred into a 96 well ELISA plate. Substrate S2765 was added and Factor Xa generation measured.

[4] = test system: Mouse bEnd.3 endothelial cells; experiment: PS translocation and viability of endothelial cells exposed to H2O2; type: cell-based
Method: Mouse bEnd.3 endothelial cells were seeded at an initial density of 50,000 cells/well. Twenty-fours later cells were incubated with increasing concentrations of H2O2 (from 10 μM to 500 μM) for 1 hour at 37° C, or left untreated. At the end of the incubation, cells were washed 3 times with PBS containing 0.2% gelatin and fixed with 0.25% glutaraldehyde. Identical wells were either stained with anti-PS IgM or trypsinized and evaluated for viability by the Trypan Blue exclusion test. For the anti-PS staining, after blocking with 2% gelatin for 10 min., cells were incubated with 2 μg/ml of anti-PS antibody, followed by detection with anti-mouse IgM-HRP conjugate.

[5] = Toxicity to mice of agents given separately; conditions: mouse, in vivo
[6] = test system: HT29 human colorectal carcinoma; experiment: HT29 xenograft, tumor growth and necrosis after tTF constructs and Factor VIIa; type: in vivo, mouse; conditions: mouse, in vivo, iv
[7] = cited from earlier work
[8] = target: T1, recombinant human VEGF (VEGF165) (human, UniProt P15692-4 27-191); experiment: competition ELISA, 1 nM VEGF on VEGFR1 (Flt-1/Fc) wells, 1000 fold molar excess of 2C3
T1 construct: Dimeric VEGF seen at about 42 kd on blots; also called huVEGF; free VEGF
T1 sequence (P15692 other isoform, or with tags, fused parts or gaps limits assumed): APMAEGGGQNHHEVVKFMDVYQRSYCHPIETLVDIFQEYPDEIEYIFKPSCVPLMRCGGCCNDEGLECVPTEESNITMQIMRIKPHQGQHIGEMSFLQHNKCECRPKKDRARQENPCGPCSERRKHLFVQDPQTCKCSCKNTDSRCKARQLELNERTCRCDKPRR

[9] = target: T1, recombinant human VEGF (VEGF165); experiment: competition ELISA, 1 nM VEGF on VEGFR1 (Flt-1/Fc) wells, 100 fold molar excess of 2C3
[10] = test system: L540 Hodgkin-bearing SCID mice; experiment: Annexin V inhibition of coaguligand-induced thrombosis in vivo; set-up: species or system mouse
Method: The ability of Annexin V to inhibit coaguligand-induced thrombosis in vivo was examined in L540 Hodgkin-bearing SCID mice.
Four hours after the last injection mice were anesthetized and perfused with heparinized saline. Tumors were removed, fixed with 4% formalin, paraffin-embedded and stained with hematoxylene-eosin. The number of thrombosed and non-thrombosed blood vessels were counted and the percentage of thrombosis was calculated.

[11] = test system: IL-1α-stimulated bEnd.3 cells; experiment: Chromogenic assay of Factor Xa formation induced by cell-bound coaguligand; type: cell-based, mouse; conditions: 10 μg per ml Annexin V
Method: The ability of Annexin V to affect Factor Xa formation induced by coaguligand was determined by a chromogenic assay. […] Annexin V was added at concentrations ranging from 0.1 to 10 μg/ml and cells were incubated for 30 min, before addition of diluted Proplex T. The amount of Factor Xa generated in the presence or absence of Annexin V was determined. Each treatment was performed in duplicate and repeated at least twice.

Chain of human endoglin (human) (P17813 26-658): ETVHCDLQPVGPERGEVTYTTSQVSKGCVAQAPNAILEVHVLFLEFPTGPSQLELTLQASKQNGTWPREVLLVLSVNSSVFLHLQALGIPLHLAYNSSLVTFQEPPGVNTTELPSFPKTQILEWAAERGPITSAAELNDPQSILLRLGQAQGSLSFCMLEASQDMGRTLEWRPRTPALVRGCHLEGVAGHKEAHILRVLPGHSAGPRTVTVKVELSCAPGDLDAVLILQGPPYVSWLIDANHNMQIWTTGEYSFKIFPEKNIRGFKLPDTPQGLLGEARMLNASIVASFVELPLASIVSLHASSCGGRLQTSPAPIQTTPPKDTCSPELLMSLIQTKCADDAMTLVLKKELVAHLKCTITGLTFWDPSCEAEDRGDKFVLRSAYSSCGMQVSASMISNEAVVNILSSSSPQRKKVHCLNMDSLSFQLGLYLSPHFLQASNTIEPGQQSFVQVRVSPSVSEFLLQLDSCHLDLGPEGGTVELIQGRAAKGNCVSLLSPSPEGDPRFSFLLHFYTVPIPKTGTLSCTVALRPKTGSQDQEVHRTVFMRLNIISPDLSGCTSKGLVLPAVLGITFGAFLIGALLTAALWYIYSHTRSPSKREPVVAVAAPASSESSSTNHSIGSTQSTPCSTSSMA

TEC-11 anti-human endoglin antibody
% of blood vessels in the tumor periphery to which the antibody localized (human endoglin (human)): 84% | % of blood vessels throughout the tumor to which the antibody localized (human endoglin (human)): 46%

COc1cc([C@@H]2c3cc4c(cc3[C@@H](O[C@@H]3O[C@@H]5CO[C@@H](C)O[C@H]5[C@H](O)[C@H]3O)[C@H]3COC(=O)[C@H]23)OCO4)cc(OC)c1O [etoposide]
average tumor volume, day 14 [1]: 1400 mm^3

monophosphoryl lipid A [MPL]
dose known to be safe for human use [2]: 100 μg/m^2

NC(=O)c1nnn(Cc2cc(Cl)c(C(=O)c3ccc(Cl)cc3)c(Cl)c2)c1N [CAI, carboxyamidotriazole]
disease stabilization, share of cancer patients [3]: 49%

TNFα
TNFα required for measurable increase of VCAM-1 expression (VCAM-1): 20 U/ml | tissue factor expression on the surface of HUVEC (HUVEC cells): upregulated tissue factor expression | TNFα at which an increase over negative control was detected in the coagulation assay (Mouse endothelial cells): 0,16 U/ml | dose for procoagulant effect, fold lower than for VCAM-1 increase (Mouse endothelial cells): 125 fold

OO [H2O2]
cells with PS at the cell surface ([4]; H2O2 as low as 20 μM): about 50% | cells with PS translocation ([4]; H2O2 higher than 100 μM, 1 hour): ~90% | cell viability ([4]; low levels of H2O2 (lower than 100 μM), identical to untreated cells): 95%

Factor VIIa: activated coagulation Factor VII, recombinant human
toxicity when given separately [5]: practically non-toxic to mice | average area of necrosis in tumor sections [6]: some necrosis | half-life in vivo [7]: approximately two hours

VEGF
tissue factor expression on the surface of HUVEC (HUVEC cells): upregulated tissue factor expression

B1: 2C3 anti-VEGF antibody (antibody, V domains shown)
VH: QVQLQESGPELVKPGASVKMSCKASGYTFTSYVFHWVKQKPGQGLEWIGYINPYNDVTKYNEKFKGKATLTSDKSSSTAYMELSSLTSEDSAVYYCASYYGSSYGYYAMDDWGQGTTVTVSS
VL: DIQLTQSPASLSVSAGEKVTMSCKSSQSLLNSGNQKNYLAWYQQKPGQPPKLLIHGASTRESGVPDRFTGSGSGTDFTLTISSVQAEDLAVYYCQNDYSYPLTFGAGTKLELKR
% of VEGF bound to VEGFR1-coated wells relative to the amount bound without 2C3 [8]: 105% | % of VEGF bound to VEGFR1-coated wells relative to the amount bound without 2C3 [9]: 92%

B2: Annexin V: protein that binds to PS with high affinity (protein, UniProt P08758 2-320, looked up)
Annexin A5: AQVLRGTVTDFPGFDERADAETLRKAMKGLGTDEESILTLLTSRSNAQRQEISAAFKTLFGRDLLDDLKSELTGKFEKLIVALMKPSRLYDAYELKHALKGAGTNEKVLTEIIASRTPEELRAIKQVYEEEYGSSLEDDVVGDTSGYYQRMLVVLLQANRDPDAGIDEAQVEQDAQALFQAGELKWGTDEEKFITIFGTRSVSHLRKVFDKYMTISGFQIEETIDRETSGNLEQLLLAVVKSIRSIPAYLAETLYYAMKGAGTDDHTLIRVMVSRSEIDLFNIRKEFRKNFATSLYSMIKGDTSGDYKKALLLLCGEDD
coaguligand-induced thrombosis and changes in tumor cell morphology after Annexin V pre-treatment ([10]; 100 μg Annexin V 2 hours before 40 μg anti-VCAM-1•tTF): completely abolished | tumor morphology ([10]; 100 μg Annexin V alone): did not alter tumor morphology | inhibition of factor Xa production [11]: 58%

B3: tTF219 (G164A): tTF219 with amino acid 164 (Gly) replaced by Ala (protein)
chain: GSGTTNTVAAYNLTWKSTNFKTILEWEPKPVNQVYTVQISTKSGDWKSKCFYTTDTECDLTDEIVKDVKQTYLARVFSYPAGNVESTGSAGEPLYENSPEFTPYLETNLGQPTIQSFEQVGTKVNVTVEDERTLVRRNNTFLSLRDVFGKDLIYTLYYWKSSSSAKKTAKTNTNEFLIDVDKGENYCFSVQAVIPSRTVNRKSTDSPVECMGQEKGEFRE
toxicity when given separately [5]: practically non-toxic to mice | average area of necrosis in tumor sections [6]: some necrosis

B4: tTF219 (W158R) (protein)
chain: B3 chain with W159R, A165G
toxicity when given separately [5]: practically non-toxic to mice
